How the values were obtained:
[1] = molecular target: T1, ICAM5 (human, UniProt Q9UMF0); test: extracellular interaction screen, normalized intensity; labelled dot against the clone named on the axis; which is query and which prey is not given; colour of the predicted class lost
T1 construct: extracellular domain
T1 sequence (extracellular domain construct of the screen, looked up): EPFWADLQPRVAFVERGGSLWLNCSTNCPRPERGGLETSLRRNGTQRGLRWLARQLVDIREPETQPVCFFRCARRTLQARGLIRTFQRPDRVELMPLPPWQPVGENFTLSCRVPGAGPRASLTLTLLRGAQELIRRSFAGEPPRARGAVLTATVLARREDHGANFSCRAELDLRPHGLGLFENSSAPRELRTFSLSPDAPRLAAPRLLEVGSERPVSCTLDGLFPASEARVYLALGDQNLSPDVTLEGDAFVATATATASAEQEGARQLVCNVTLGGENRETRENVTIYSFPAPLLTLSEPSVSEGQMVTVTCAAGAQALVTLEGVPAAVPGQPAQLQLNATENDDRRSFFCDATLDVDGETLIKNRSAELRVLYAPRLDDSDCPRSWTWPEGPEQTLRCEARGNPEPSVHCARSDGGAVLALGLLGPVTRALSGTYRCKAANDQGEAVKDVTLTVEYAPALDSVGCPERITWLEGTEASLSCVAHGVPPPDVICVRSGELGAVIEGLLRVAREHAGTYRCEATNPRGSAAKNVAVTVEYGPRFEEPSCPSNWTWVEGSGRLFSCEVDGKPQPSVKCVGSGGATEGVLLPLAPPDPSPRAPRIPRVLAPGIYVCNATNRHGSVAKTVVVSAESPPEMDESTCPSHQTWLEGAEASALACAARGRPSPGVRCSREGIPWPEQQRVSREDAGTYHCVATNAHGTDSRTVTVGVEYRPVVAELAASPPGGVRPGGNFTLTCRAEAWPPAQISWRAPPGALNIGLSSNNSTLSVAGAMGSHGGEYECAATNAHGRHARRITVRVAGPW

[2] = molecular target: T2, EPHA3 extracellular domain (human, UniProt P29320 21-541); test: SPR, EPHA3 ECD-Fc immobilized, ECD-Fc analytes at 250 nM
T2 construct: extracellular domain; ECD construct; also called ephrin type-A receptor 3
T2 sequence (looked up): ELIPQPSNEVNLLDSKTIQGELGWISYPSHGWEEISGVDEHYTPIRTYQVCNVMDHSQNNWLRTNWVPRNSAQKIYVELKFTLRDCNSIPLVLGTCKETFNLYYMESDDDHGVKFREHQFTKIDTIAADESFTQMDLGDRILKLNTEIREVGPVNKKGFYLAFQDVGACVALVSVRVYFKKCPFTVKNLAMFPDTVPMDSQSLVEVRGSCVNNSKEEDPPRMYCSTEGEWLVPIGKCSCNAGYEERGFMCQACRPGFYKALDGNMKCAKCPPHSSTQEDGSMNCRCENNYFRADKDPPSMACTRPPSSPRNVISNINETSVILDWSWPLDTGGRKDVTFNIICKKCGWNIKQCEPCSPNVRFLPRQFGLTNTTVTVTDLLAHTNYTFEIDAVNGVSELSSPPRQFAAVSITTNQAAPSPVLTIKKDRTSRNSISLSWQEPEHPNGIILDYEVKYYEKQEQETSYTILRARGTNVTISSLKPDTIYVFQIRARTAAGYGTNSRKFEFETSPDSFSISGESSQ
Text: An irrelevant Fc-tagged protein was used as a control. Sensorgram shown is representative of at least 3 independent runs.

[3] = molecular target: T3, EPHA3 expressed on cells (human, UniProt P29320 21-983); test: cell surface interaction assay: PD-L2 ECD tetramer on transfected cells (FIG. 4F)
T3 construct: whole, on cells; also called ephrin type-A receptor 3
T3 sequence (looked up): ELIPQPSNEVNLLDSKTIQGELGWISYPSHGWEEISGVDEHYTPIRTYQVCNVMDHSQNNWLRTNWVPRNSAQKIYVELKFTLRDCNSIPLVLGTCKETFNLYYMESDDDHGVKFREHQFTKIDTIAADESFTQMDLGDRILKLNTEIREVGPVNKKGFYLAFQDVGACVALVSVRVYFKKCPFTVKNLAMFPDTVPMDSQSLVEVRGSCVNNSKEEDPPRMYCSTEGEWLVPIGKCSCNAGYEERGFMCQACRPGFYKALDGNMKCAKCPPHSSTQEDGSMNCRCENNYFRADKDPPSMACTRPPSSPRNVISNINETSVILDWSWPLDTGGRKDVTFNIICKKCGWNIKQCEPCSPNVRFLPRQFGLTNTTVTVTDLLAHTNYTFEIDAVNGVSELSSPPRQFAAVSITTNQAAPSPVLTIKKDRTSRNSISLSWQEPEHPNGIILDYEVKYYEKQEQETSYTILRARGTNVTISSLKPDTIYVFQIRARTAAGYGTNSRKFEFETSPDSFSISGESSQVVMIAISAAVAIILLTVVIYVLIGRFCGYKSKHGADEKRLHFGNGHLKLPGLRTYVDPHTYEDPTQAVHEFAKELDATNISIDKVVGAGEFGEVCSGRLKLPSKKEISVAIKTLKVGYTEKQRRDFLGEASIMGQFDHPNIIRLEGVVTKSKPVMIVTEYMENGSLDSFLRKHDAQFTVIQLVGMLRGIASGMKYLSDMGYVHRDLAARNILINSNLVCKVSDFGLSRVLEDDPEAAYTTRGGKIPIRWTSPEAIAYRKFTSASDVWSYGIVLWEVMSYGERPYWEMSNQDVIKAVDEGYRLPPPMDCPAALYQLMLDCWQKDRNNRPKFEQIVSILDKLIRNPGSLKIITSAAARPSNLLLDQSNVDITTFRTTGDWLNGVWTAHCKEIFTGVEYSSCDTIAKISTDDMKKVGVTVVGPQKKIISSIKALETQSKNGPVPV

[4] = molecular target: T4, CEACAM5 expressed on cells (human, UniProt P06731 35-685); test: as above
T4 construct: whole, on cells
T4 sequence (looked up): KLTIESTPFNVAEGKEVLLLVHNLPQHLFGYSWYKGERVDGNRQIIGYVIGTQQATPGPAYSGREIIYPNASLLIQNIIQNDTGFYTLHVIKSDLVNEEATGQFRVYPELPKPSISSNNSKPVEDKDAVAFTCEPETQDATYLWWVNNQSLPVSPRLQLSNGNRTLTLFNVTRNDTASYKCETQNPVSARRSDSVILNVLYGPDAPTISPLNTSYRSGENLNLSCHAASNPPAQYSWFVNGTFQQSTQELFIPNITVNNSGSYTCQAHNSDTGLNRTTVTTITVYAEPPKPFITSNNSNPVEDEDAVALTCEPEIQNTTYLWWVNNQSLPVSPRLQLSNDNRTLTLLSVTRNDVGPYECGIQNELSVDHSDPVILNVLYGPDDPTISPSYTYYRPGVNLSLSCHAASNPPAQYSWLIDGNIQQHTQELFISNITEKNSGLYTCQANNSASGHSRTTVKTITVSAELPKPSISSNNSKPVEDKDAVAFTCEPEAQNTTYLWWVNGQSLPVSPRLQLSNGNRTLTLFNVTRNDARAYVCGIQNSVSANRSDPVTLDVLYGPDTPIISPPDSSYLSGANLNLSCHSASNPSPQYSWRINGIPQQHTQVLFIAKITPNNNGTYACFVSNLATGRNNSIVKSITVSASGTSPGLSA

[5] = molecular target: T5, CEACAM4 expressed on cells (human, UniProt O75871 36-244); test: as above
T5 construct: whole, on cells
T5 sequence (looked up): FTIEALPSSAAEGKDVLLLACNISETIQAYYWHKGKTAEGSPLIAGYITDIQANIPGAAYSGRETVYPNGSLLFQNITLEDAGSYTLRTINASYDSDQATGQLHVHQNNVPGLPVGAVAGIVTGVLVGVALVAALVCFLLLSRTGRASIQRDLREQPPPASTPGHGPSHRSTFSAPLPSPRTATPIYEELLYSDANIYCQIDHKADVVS

[6] = molecular target: T6, PD-L1 expressed on cells (human, UniProt Q9NZQ7 19-290); test: as above
T6 construct: whole, on cells; also called CD274
T6 sequence (Q9NZQ7 19-290): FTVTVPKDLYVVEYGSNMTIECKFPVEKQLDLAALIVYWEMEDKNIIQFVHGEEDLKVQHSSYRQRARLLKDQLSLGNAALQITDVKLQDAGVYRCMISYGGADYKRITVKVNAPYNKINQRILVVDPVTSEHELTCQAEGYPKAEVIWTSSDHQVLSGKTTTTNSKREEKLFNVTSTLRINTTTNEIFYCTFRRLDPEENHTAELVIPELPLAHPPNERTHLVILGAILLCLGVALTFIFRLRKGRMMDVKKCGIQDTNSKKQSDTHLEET

B1: PD-L2 extracellular domain (ligand, human, UniProt Q9BQ51 20-220, looked up)
chain: LFTVTVPKELYIIEHGSNVTLECNFDTGSHVNLGAITASLQKVENDTSPHRERATLLEEQLPLGKASFHIPQVQVRDEGQYQCIIIYGVAWDYKYLTLKVKASYRKINTHILKVPETDEVELTCQATGYPLAEVSWPNVSVPANTSHSRTPEGLYQVTSVLRLKPPPGRNFSCVFWNTHVRELTLASIDLQSQMEPRTHPT
notes: extracellular domain; ECD construct; also called PDCD1LG2; programmed cell death 1 ligand 2
- binding result [1]: binds
- binding result [2]: no binding (tested: 250 nM)
- binding result [3]: no binding
- binding result [4]: no binding
- binding result [5]: binds
- binding result [6]: binds

— patent US20220119490A1 (Genentech, published 2022)
